This passage reports Kd and binding signal results from patent US20090018093.

Like-named read-outs stand apart in the source and are kept apart here.

The series concerns Immunoglobulin E (IgE) (Homo sapiens), P01854-1. Kind of series: filter.
Sequence of Immunoglobulin E (IgE) (Homo sapiens), P01854-1 (P01854 other isoform, or with tags, fused parts or gaps): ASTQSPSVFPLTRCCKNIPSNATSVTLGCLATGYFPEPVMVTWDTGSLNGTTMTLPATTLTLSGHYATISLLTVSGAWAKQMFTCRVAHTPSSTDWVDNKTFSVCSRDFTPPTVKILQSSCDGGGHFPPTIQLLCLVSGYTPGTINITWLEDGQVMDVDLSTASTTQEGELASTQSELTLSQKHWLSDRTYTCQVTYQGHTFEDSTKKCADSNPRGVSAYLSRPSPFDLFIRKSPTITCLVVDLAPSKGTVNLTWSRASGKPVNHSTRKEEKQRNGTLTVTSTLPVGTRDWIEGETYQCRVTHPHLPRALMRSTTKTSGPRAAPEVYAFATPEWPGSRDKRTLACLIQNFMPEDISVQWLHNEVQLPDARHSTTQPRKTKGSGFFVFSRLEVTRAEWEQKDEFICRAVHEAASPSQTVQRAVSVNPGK

Consider “GGAUCCGAGGGUGGGCAAUAGGCUCACAAGGGUCC [rRfY minimer SEQ 94]”, for which, for the setting “2'-F C and U, KD2 26.5 nM, 1xSHMCK + tRNA”, the Kd (commonly the equilibrium constant for the complex coming apart) came out at 1.01 nM. For the sequence “GGGAAAAGCGAAUCAUACACAAGACGUGAGCAUAUCAUUGAGUGUAGUGGUUCCGGAGUAAGUCGCUCCGCCAGAGACCAACCGAGAA [rRfY clone SEQ 15]”, the Kd (2'-F C and U, biphasic, KD2 19.0 nM, 1xSHMCK + tRNA, RT) came to 0.115 nM.

For the sequence “GGGAAAAGCGAAUCAUACACAAGAGUGCAAGAAGUGCAUUGCUGUGUCUGGUUCUUGGCGAUGUGCUCCGCCAGAGACCAACCGAGAA [rRfY clone SEQ 17]”, under “2'-F C,U, ratio bound +/- 20 nM IgE”, the binding signal turned out to be 0.76.

For the sequence “GGGAGAGGAGAGAACGUUCUACAAGCAGUUCUGGGGACCCAUGGGGGAAGUGCGCUGUCGAUCGAUCGAUCGAUG [ARC1992]”, the Kd (dRmY: 2'-deoxy A,G, 2'-OMe C,U, error 8, dPBS Ca/Mg + BSA, RT) amounted to 10 nM. As for “GGGAGAGGAGAGAACGUUCUACACUCUGGGGACCCGUGGGGGAGUGCAGCAACGCUGUCGAUCGAUCGAUCGAUG [ARC2005]”, the Kd (dRmY: 2'-deoxy A,G, 2'-OMe C,U, error 3, dPBS Ca/Mg + BSA, RT) was 5 nM. Take “GGGAGAGGAGAGAACGUUCUACAGGCAGUUCUGGGGACCCAUGGGGGAAGUGCGCUGUCGAUCGAUCGAUCGAUG [ARC1991]”: the dissociation constant Kd (dRmY: 2'-deoxy A,G, 2'-OMe C,U, error 2, dPBS Ca/Mg + 0.1 mg/mL BSA, RT, 87.7 nM with 1 mg/mL tRNA + ssDNA competitor (p280)) was found to be 2 nM. For the sequence “GGGAGAGGAGAGAACGUUCUACAUUGUGCUCCUGGGGCCCAGUGGGGAGCCACGCUGUCGAUCGAUCGAUCGAUG [ARC1995]”, the Kd (dRmY: 2'-deoxy A,G, 2'-OMe C,U, error 2, dPBS Ca/Mg + BSA, RT) is 4 nM. “GGGAGAGGAGAGAACGUUCUACCAACGGCAUCCUGGGCCCCACAGGGGAUGUCGCUGUCGAUCGAUCGAUCGAUG [ARC2002]”: the Kd (dRmY: 2'-deoxy A,G, 2'-OMe C,U, error 6, dPBS Ca/Mg + BSA, RT) is 8 nM. Take “GGGAGAGGAGAGAACGUUCUACCCGCAGCAUAGCCUGGGGACCCAUGGGGGGCGCUGUCGAUCGAUCGAUCGAUG [ARC1994]”: the Kd (dRmY: 2'-deoxy A,G, 2'-OMe C,U, error 5, dPBS Ca/Mg + BSA, RT, 109.7 nM with tRNA + ssDNA competitor (p280)) was determined as 5 nM. Consider “GGGAGAGGAGAGAACGUUCUACGAGCAGCCCUGGGGCCCGGAGGGGGAUGGUCGCUGUCGAUCGAUCGAUCGAUG [ARC1993]”, for which the Kd (dRmY: 2'-deoxy A,G, 2'-OMe C,U, error 4, dPBS Ca/Mg + BSA, RT) turned out to be 9 nM. In the case of “GGGAGAGGAGAGAACGUUCUACGAUCUGGGCGAGCCAGUCUGACUGAGGAAGCGCUGUCGAUCGAUCGAUCGAUGAAGGGCG [rRmY clone SEQ 56]”, the Kd (2'-OMe C,U, 2'-OH A,G, DPBS, 0.1 mg/mL tRNA, RT) is 500 nM. Consider “GGGAGAGGAGAGAACGUUCUACGCAGCGCAUCUGGGGACCCAAGAGGGGAUUCGCUGUCGAUCGAUCGAUCGAUG [ARC2001]”, for which the Kd (dRmY: 2'-deoxy A,G, 2'-OMe C,U, error 0.1, dPBS Ca/Mg + BSA, RT) was 18 nM. “GGGCAACTTTATCCGTTCCTCTTAGTGGGTTGCCCC [DNA clone SEQ 139]” had a dissociation constant Kd of 0.4 nM. The same measure, in the same setting: next, “GGGCTACTTTATCCGTCCCTCCTAGTGGGTAGCCCC [DNA clone SEQ 140]”: 0.2 nM. In turn, “GGGCTACTTTATCCGTTCCTCCTAGTGGGTAGCCCT [ARC1306]” returned a Kd (2'-OMe stem block as printed in Table 18, 3' idT [2'-OMe: stem block (exact positions not given in the material), 36 = 3' inverted dT], DPBS Mg/Ca, BSA) of 14 nM.

Sequence “GGGGCACATTCATCCGTCCCTCCTAGTGGTGTGCTCC [DNA clone SEQ 128]” came in with a Kd of 0.5 nM. The sequence “GGGGCACATTTATCCGTCCCTCCTAGTGGTGTGCCCC [DNA clone SEQ 119]” came in with a Kd of 0.6 nM. Same read-out and setting: as for “GGGGCAGCTTTATCCGTACCTCCCAGTGGGCTGCCCC [ARC474]”, the figure is 0.7 nM. The same measure, in the same setting: next, “GGGGCAGCTTTATCCGTTCCTCCTAGTGGGCTGCCTC [DNA clone SEQ 131]”: 0.3 nM. The same measure, in the same setting: as for “GGGGCTACTTCATCCGTCCCTCCTAGTGGGTAGCCCC [ARC478]”, the figure is 0.4 nM.

Consider “GGGGCTACTTGATCCGTCCCTCCTAGTGGGTAGCCCC [ARC477]”, for which the Kd was 0.6 nM. Consider “GGGGCTACTTTATCCGTTCCTCCTAGTGGGTAGCCCC [ARC1391]”, for which the Kd (2'-OMe at 1-4,7,33-37, PS 8-9, 3' idT [2'-OMe at 1-4,7,33-37, PS linkage 8-9 (internal N = PS, not a base), 3' inverted dT cap (terminal N, left out)], DPBS Mg/Ca, BSA) stood at 4.4 nM. Turning to “GGGGCTACTTTATCCGTTCCTCCTAGTGGGTAGCCCC [ARC1392]”, for the setting “2'-OMe at 1-4,7,33-37, PS 9-10, 3' idT [2'-OMe at 1-4,7,33-37, PS linkage 9-10 (internal N = PS, not a base), 3' inverted dT cap (terminal N, left out)], DPBS Mg/Ca, BSA”, the Kd turned out to be 3 nM. Consider “GGGGCTACTTTATCCGTTCCTCCTAGTGGGTAGCCCC [ARC1394]”, for which, for the setting “2'-OMe at 1-4,7,33-37, PS 11-12, 3' idT [2'-OMe at 1-4,7,33-37, PS linkage 11-12 (internal N = PS, not a base), 3' inverted dT cap (terminal N, left out)], DPBS Mg/Ca, BSA”, the Kd was 8.1 nM. Regarding “GGGGCTACTTTATCCGTTCCTCCTAGTGGGTAGCCCC [ARC1395]”, the Kd (2'-OMe at 1-4,7,33-37, PS 12-13, 3' idT [2'-OMe at 1-4,7,33-37, PS linkage 12-13 (internal N = PS, not a base), 3' inverted dT cap (terminal N, left out)], DPBS Mg/Ca, BSA) was found to be 5.7 nM.

For “GGGGCTACTTTATCCGTTCCTCCTAGTGGGTAGCCCC [ARC1396]”, the Kd (2'-OMe at 1-4,7,33-37, PS 13-14, 3' idT [2'-OMe at 1-4,7,33-37, PS linkage 13-14 (internal N = PS, not a base), 3' inverted dT cap (terminal N, left out)], DPBS Mg/Ca, BSA) was determined as 2 nM. Under “2'-OMe at 1-4,7,33-37, PS 14-15, 3' idT [2'-OMe at 1-4,7,33-37, PS linkage 14-15 (internal N = PS, not a base), 3' inverted dT cap (terminal N, left out)], DPBS Mg/Ca, BSA”, “GGGGCTACTTTATCCGTTCCTCCTAGTGGGTAGCCCC [ARC1397]” displayed a Kd of 1.8 nM.

With “GGGGCTACTTTATCCGTTCCTCCTAGTGGGTAGCCCC [ARC1398]”, the dissociation constant (Kd) (2'-OMe at 1-4,7,33-37, PS 15-16, 3' idT [2'-OMe at 1-4,7,33-37, PS linkage 15-16 (internal N = PS, not a base), 3' inverted dT cap (terminal N, left out)], DPBS Mg/Ca, BSA) worked out at 2.7 nM. The sequence “GGGGCTACTTTATCCGTTCCTCCTAGTGGGTAGCCCC [ARC1399]” had a Kd (2'-OMe at 1-4,7,33-37, PS 16-17, 3' idT [2'-OMe at 1-4,7,33-37, PS linkage 16-17 (internal N = PS, not a base), 3' inverted dT cap (terminal N, left out)], DPBS Mg/Ca, BSA) of 1.8 nM.

For the sequence “GGGGCTACTTTATCCGTTCCTCCTAGTGGGTAGCCCC [ARC1400]”, for the setting “2'-OMe at 1-4,7,33-37, PS 17-18, 3' idT [2'-OMe at 1-4,7,33-37, PS linkage 17-18 (internal N = PS, not a base), 3' inverted dT cap (terminal N, left out)], DPBS Mg/Ca, BSA”, the Kd is 2.4 nM. Under “2'-OMe at 1-4,7,33-37, PS 18-19, 3' idT [2'-OMe at 1-4,7,33-37, PS linkage 18-19 (internal N = PS, not a base), 3' inverted dT cap (terminal N, left out)], DPBS Mg/Ca, BSA”, “GGGGCTACTTTATCCGTTCCTCCTAGTGGGTAGCCCC [ARC1401]” yielded a Kd of 2 nM.

“GGGGCTACTTTATCCGTTCCTCCTAGTGGGTAGCCCC [ARC1402]” yielded a Kd (2'-OMe at 1-4,7,33-37, PS 19-20, 3' idT [2'-OMe at 1-4,7,33-37, PS linkage 19-20 (internal N = PS, not a base), 3' inverted dT cap (terminal N, left out)], DPBS Mg/Ca, BSA) of 2.1 nM. Turning to “GGGGCTACTTTATCCGTTCCTCCTAGTGGGTAGCCCC [ARC1404]”, the Kd (2'-OMe at 1-4,7,33-37, PS 21-22, 3' idT [2'-OMe at 1-4,7,33-37, PS linkage 21-22 (internal N = PS, not a base), 3' inverted dT cap (terminal N, left out)], DPBS Mg/Ca, BSA) was 1.8 nM.

On to “GGGGCTACTTTATCCGTTCCTCCTAGTGGGTAGCCCC [ARC1405]”, for which, for the setting “2'-OMe at 1-4,7,33-37, PS 22-23, 3' idT [2'-OMe at 1-4,7,33-37, PS 22-23, 3' idT cap after 37 (left out)], DPBS Mg/Ca, BSA”, the Kd stood at 2.5 nM.

Regarding “GGGGCTACTTTATCCGTTCCTCCTAGTGGGTAGCCCC [ARC1406]”, the Kd (2'-OMe at 1-4,7,33-37, PS 23-24, 3' idT [2'-OMe at 1-4,7,33-37, PS 23-24, 3' idT cap after 37 (left out)], DPBS Mg/Ca, BSA) was 3.2 nM. Consider “GGGGCTACTTTATCCGTTCCTCCTAGTGGGTAGCCCC [ARC1407]”, for which the Kd (2'-OMe at 1-4,7,33-37, PS 24-25, 3' idT [2'-OMe at 1-4,7,33-37, PS 24-25, 3' idT cap after 37 (left out)], DPBS Mg/Ca, BSA) is 1.8 nM. “GGGGCTACTTTATCCGTTCCTCCTAGTGGGTAGCCCC [ARC1408]”: the dissociation constant Kd (2'-OMe at 1-4,7,33-37, PS 25-26, 3' idT [2'-OMe at 1-4,7,33-37, PS 25-26, 3' idT cap after 37 (left out)], DPBS Mg/Ca, BSA) was 1 nM. Under “2'-OMe at 1-4,7,33-37, PS 28-29, 3' idT [2'-OMe at 1-4,7,33-37, PS 28-29, 3' idT cap after 37 (left out)], DPBS Mg/Ca, BSA”, “GGGGCTACTTTATCCGTTCCTCCTAGTGGGTAGCCCC [ARC1411]” returned a Kd of 5.4 nM. As for “GGGGCTACTTTATCCGTTCCTCCTAGTGGGTAGCCCC [ARC1412]”, the Kd (2'-OMe at 1-4,7,33-37, PS 29-30, 3' idT [2'-OMe at 1-4,7,33-37, PS 29-30, 3' idT cap after 37 (left out)], DPBS Mg/Ca, BSA) turned out to be 2.5 nM. In the case of “GGGGCTACTTTATCCGTTCCTCCTAGTGGGTAGCCCC [ARC1413]”, under “2'-OMe at 1-4,7,33-37, PS 30-31, 3' idT [2'-OMe at 1-4,7,33-37, PS 30-31, 3' idT cap after 37 (left out)], DPBS Mg/Ca, BSA”, the Kd turned out to be 3.3 nM. For the sequence “GGGGCTACTTTATCCGTTCCTCCTAGTGGGTAGCCCC [ARC1414]”, the Kd (2'-OMe at 1-4,7,33-37, PS 31-32, 3' idT [2'-OMe at 1-4,7,33-37, PS 31-32, 3' idT cap after 37 (left out)], DPBS Mg/Ca, BSA) amounted to 2.9 nM. For “GGGGCTACTTTATCCGTTCCTCCTAGTGGGTAGCCCC [ARC1415]”, where the note is “2'-OMe at 1-4,7,33-37, multiple PS as printed, 3' idT [2'-OMe at 1-4,7,33-37, PS 9-10,12-13,14-15,18-19,21-22,24-25,27-28,30-31, 3' idT cap after 37 (left out)], DPBS Mg/Ca, BSA”, the Kd amounted to 1.2 nM.
